Target: mS105 (Chlamydomonas reinhardtii (endogenous in strain CC-4351))
Experiment: cryo-EM structure

mS105 (natural protein) gave a stoichiometry N of 3.

From doi:10.1101/2021.05.21.445086
